Data from patent US20220227830A1, “QD DOSING OF GIP RECEPTOR AGONIST PEPTIDE COMPOUNDS AND USES THEREOF” (Takeda Pharmaceutical Company Limited, priority 2020, published 2022).
Starred links: 1 amine or outer side, 2 acyl side, 3 side chain; linkers in the order of their positions; H or OH if unused. Non-standard residues stand in square brackets, D forms with d. Groups on a side chain read outwards from the residue. No end group written: not given here. *: point of attachment. C15 diacid = O=C(O)CCCCCCCCCCCCCC(=O)*; γGlu = O=C(O)[C@H](CCC(=O)[*:2])N[*:1]; AEEA = NCCOCCOCC(=O)O; Aib = CC(C)(N)C(=O)O; C16 = lipid C16

T1: full-length human GIPR with an N-terminal FLAG tag, overexpressed on HEK-293T cells (human, UniProt P48546 22-466)
T1 sequence (looked up): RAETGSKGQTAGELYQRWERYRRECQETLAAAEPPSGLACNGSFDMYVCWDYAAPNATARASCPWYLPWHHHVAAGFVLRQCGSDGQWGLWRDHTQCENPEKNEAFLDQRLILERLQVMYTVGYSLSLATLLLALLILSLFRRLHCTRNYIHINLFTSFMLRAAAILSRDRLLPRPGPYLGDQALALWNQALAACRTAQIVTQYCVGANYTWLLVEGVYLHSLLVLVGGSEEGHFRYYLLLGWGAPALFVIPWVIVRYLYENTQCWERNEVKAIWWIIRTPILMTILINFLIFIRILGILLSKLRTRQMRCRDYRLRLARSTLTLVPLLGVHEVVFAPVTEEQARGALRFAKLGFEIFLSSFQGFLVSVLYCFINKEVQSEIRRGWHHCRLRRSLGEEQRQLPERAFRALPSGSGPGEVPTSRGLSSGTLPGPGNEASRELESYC


Legend:
[1] = target: T1, full-length human GIPR with an …; test: cell-based or functional assay
[2] = target: full-length human GLP-1R with an N-terminal FLAG tag, overexpressed on HEK-293T cells (human, UniProt P43220 24-463); test: cell-based or functional assay

Binder | Human GIPR cAMP, HEK293T EC50 [1] | Human GLP1R cAMP HEK293T EC50 [2]
Me-Y[Aib]EGTFISDYSIALDR[Aib]K([AEEA-AEEA-γGlu-γGlu-C15 diacid])Q[Aib]NFVNWLLAQRG-OH [Compound 171] | 0.0005 nM | > 1000 nM
YXEGTFISDYSIAXDRXAQXDFVNWLLAQSG (N-terminal Me (Me-Tyr1); Aib at 2, 17, 20; Km = Lys(R) at 14, linker printed GS (read as G5 = GGGGG), lipid C15DA (C15 diacid); C-terminal OH) [Compound 172] | 0.0004 nM | 64.6 nM
Me-Y[Aib]EGTFISDYSIAKDR[Aib]AQ[Aib]DFVNWLLAQRG-OH (not fully specified (residues 1, 14)) [Compound 173] | 0.0005 nM | > 1000 nM
Me-Y[Aib]EGTFISDYSI[Aib]LDR[Aib]AQ[Aib]K([AEEA-AEEA-γGlu-γGlu-C15 diacid])FVNWLLAQKG-OH [Compound 175] | 0.0004 nM | 44.7 nM
YXEGTFISDYSIAXDSXAQXDFVNWLLAQKG (N-terminal Me (Me-Tyr1); Aib at 2, 17, 20; Km = Lys(R) at 14, linker printed GS (read as G5 = GGGGG), lipid C15DA (C15 diacid); C-terminal OH) [Compound 177] | 0.0002 nM | 1000 nM
Me-Y[Aib]EGTFISDYSIAK([Gly-Gly-Gly-Gly-γGlu-C15 diacid])DR[Aib]AQ[Aib]DFVNWLLAQKG-OH [Compound 180] | 0.0003 nM | > 1000 nM
YXEGTFISDYSIAXDRXAQXDFVNWLLAQXG (N-terminal Me (Me-Tyr1); Aib at 2, 17, 20; Km = Lys(R) at 14, linker printed GS (read as G5 = GGGGG), lipid C15DA (C15 diacid); K(Ac) (N-epsilon-acetyllysine) at 30; C-terminal OH) [Compound 181] | 0.0004 nM | 162 nM
YXEGTFISDYSIXXDRXAQXDFVNWLLAQSPG (N-terminal Me (Me-Tyr1); Aib at 2, 13, 17, 20; Km = Lys(R) at 14, linker printed GS (read as G5 = GGGGG), lipid C15DA (C15 diacid); C-terminal OH) [Compound 182] | 0.0002 nM | 155 nM
Me-Y[Aib]EGTFISDYSI[Aib]LDR[Aib]AQ[Aib]K([AEEA-AEEA-γGlu-γGlu-C15 diacid])FVNWLLAQSPG-OH [Compound 183] | 0.0005 nM | 89.1 nM
Me-Y[Aib]EGTFISDYSIALDR[Aib]AQ[Aib]K([AEEA-AEEA-γGlu-γGlu-C15 diacid])FVNWLLAQSPG-OH [Compound 184] | 0.0003 nM | > 1000 nM
Me-Y[Aib]EGTFISDYSI[Aib]LDR[Aib]KQ[Aib]DFVNWLLAQSPG-OH (not fully specified (residues 1, 18); printed as Me-Tyr-Aib-Glu-Gly-Thr-Phe-Ile-Ser-Asp-Tyr-Ser-Ile-Aib-Leu-Asp-Arg-Aib-Lys(R)-Gln-Aib-Asp-Phe-Val-Asn-Trp-Leu-Leu-Ala-Gln-Ser-Pro-Gly-OH) [Compound 185] | 0.0004 nM | > 1000 nM
YXEGTFISDYSIXLDRXAQXDFVNWLLAQSPG (N-terminal Me (Me-Tyr1); Aib at 2, 13, 20; Km = Lys(R) at 17, linker printed GS (read as G5 = GGGGG), lipid C15DA (C15 diacid); C-terminal OH) [Compound 186] | 0.0003 nM | 26.9 nM
YXEGTFISDYSIXXDRXAQXNFVNWLLAQSPSSGAPPPS (N-terminal Me (Me-Tyr1); Aib at 2, 13, 17, 20; Km = Lys(R) at 14, linker printed GS (read as G5 = GGGGG), lipid C15DA (C15 diacid); C-terminal OH) [Compound 187] | 0.0002 nM | 51.3 nM
Y[Aib]EGTFISDYSIALDR[Aib]AQ[Aib]K([AEEA-AEEA-γGlu-γGlu-C15 diacid])FVNWLLAQKG-OH (not fully specified (residue 1)) [Compound 188] | 0.0003 nM | 22.9 nM
Me-Y[Aib]EGTFISDYSIALDR[Aib]HQ[Aib]NFVNWK([γGlu-C16])LAQR-NH2 [Compound 190] | 0.0158 nM | 1000 nM
